The supplement of paper PMC10567573

B1: ZNF263 (parent)
chain: CSECGESFSRSSRLMSHQRTHTG

Variants of: B1
Assay: protein stability index of a GFP-peptide fusion (GPS, HEK-293T) (PSI 1-6); higher = more stable
Conditions: c terminus: native
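Further: lentivirally expressed fusions sorted by FACS into six bins by GFP to DsRed ratio, PSI derived from sequencing read proportions per bin multiplied by bin number.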

Variant | protein stability index
CSECGESFNRSSRLMSHQRTHTG [S9N] | 2.67
CSECGESFQRSSRLMSHQRTHTG [S9Q] | 1.94
CSECGESFVRSSRLMSHQRTHTG [S9V] | 2.42
CSECGESFIRSSRLMSHQRTHTG [S9I] | 2.4
CSECGESFWRSSRLMSHQRTHTG [S9W] | 2.84
CSECGESFTRSSRLMSHQRTHTG [S9T] | 2.98
CSECGESFFRSSRLMSHQRTHTG [S9F] | 2.58
CSECGESFYRSSRLMSHQRTHTG [S9Y] | 3.1
CSECGESFARSSRLMSHQRTHTG [S9A] | 2.54
CSECGESFLRSSRLMSHQRTHTG [S9L] | 2.03
CSECGESFGRSSRLMSHQRTHTG [S9G] | 2.23
CSECGESFHRSSRLMSHQRTHTG [S9H] | 2.99
CSECGESFMRSSRLMSHQRTHTG [S9M] | 2.68
CSECGESFDRSSRLMSHQRTHTG [S9D] | 4.09
CSECGESFERSSRLMSHQRTHTG [S9E] | 3.67
CSEIGESFSRSSRLMSHQRTHTG [C4I] | 1.74
CSERGESFSRSSRLMSHQRTHTG [C4R] | 1.15
CSEPGESFSRSSRLMSHQRTHTG [C4P] | 1.51
CSEAGESFSRSSRLMSHQRTHTG [C4A] | 1.56
CSENGESFSRSSRLMSHQRTHTG [C4N] | 2.11
CSELGESFSRSSRLMSHQRTHTG [C4L] | 1.81
CSEDGESFSRSSRLMSHQRTHTG [C4D] | 2.31
CSEKGESFSRSSRLMSHQRTHTG [C4K] | 1.42
CSEVGESFSRSSRLMSHQRTHTG [C4V] | 2.12
CSEFGESFSRSSRLMSHQRTHTG [C4F] | 1.24

Variant | protein stability index
CSEQGESFSRSSRLMSHQRTHTG [C4Q] | 1.53
CSEHGESFSRSSRLMSHQRTHTG [C4H] | 1.4
CSEGGESFSRSSRLMSHQRTHTG [C4G] | 1.82
CSEMGESFSRSSRLMSHQRTHTG [C4M] | 1.85
CSETGESFSRSSRLMSHQRTHTG [C4T] | 1.56
CSEEGESFSRSSRLMSHQRTHTG [C4E] | 1.8
CSECGESFSISSRLMSHQRTHTG [R10I] | 2.95
CSECGESFSASSRLMSHQRTHTG [R10A] | 2.98
CSECGESFSYSSRLMSHQRTHTG [R10Y] | 2.83
CSECGESFSQSSRLMSHQRTHTG [R10Q] | 3.85
CSECGESFSFSSRLMSHQRTHTG [R10F] | 2.51
CSECGESFSVSSRLMSHQRTHTG [R10V] | 3.48
CSECGESFSTSSRLMSHQRTHTG [R10T] | 5.16
CSECGESFSCSSRLMSHQRTHTG [R10C] | 4.11
CSECGESFSGSSRLMSHQRTHTG [R10G] | 2.95
CSECGESFSSSSRLMSHQRTHTG [R10S] | 5.28
CSECGESFSKSSRLMSHQRTHTG [R10K] | 2.68
CSECGESFSMSSRLMSHQRTHTG [R10M] | 3.62
CSECGESFSDSSRLMSHQRTHTG [R10D] | 5.6
CSECGESFSNSSRLMSHQRTHTG [R10N] | 4.99
CSECGESFSHSSRLMSHQRTHTG [R10H] | 4.29
CSECGESFSLSSRLMSHQRTHTG [R10L] | 3.71
CSECGESFSESSRLMSHQRTHTG [R10E] | 5.27
CSECGESFSPSSRLMSHQRTHTG [R10P] | 2
CSECGESFSWSSRLMSHQRTHTG [R10W] | 1.15

Variant | protein stability index
CSECGTSFSRSSRLMSHQRTHTG [E6T] | 1.76
CSECGQSFSRSSRLMSHQRTHTG [E6Q] | 2.96
CSECGVSFSRSSRLMSHQRTHTG [E6V] | 2.97
CSECGYSFSRSSRLMSHQRTHTG [E6Y] | 1.56
CSECGSSFSRSSRLMSHQRTHTG [E6S] | 2.94
CSECGDSFSRSSRLMSHQRTHTG [E6D] | 1.89
CSECGHSFSRSSRLMSHQRTHTG [E6H] | 2.05
CSECGWSFSRSSRLMSHQRTHTG [E6W] | 2.02
CSECGRSFSRSSRLMSHQRTHTG [E6R] | 3.9
CSECGASFSRSSRLMSHQRTHTG [E6A] | 3.66
CSECGPSFSRSSRLMSHQRTHTG [E6P] | 1.92
CSECGMSFSRSSRLMSHQRTHTG [E6M] | 3.42
CSECGLSFSRSSRLMSHQRTHTG [E6L] | 3.22
CSECGCSFSRSSRLMSHQRTHTG [E6C] | 2.52
CSECGISFSRSSRLMSHQRTHTG [E6I] | 2.15
CSECGFSFSRSSRLMSHQRTHTG [E6F] | 1.61
CSECGKSFSRSSRLMSHQRTHTG [E6K] | 3.25
CSECGNSFSRSSRLMSHQRTHTG [E6N] | 1.73
CSECGESFSRASRLMSHQRTHTG [S11A] | 4.04
CSECGESFSRHSRLMSHQRTHTG [S11H] | 3.47
CSECGESFSRCSRLMSHQRTHTG [S11C] | 3.34
CSECGESFSRMSRLMSHQRTHTG [S11M] | 4.29
CSECGESFSRNSRLMSHQRTHTG [S11N] | 2.31
CSECGESFSRKSRLMSHQRTHTG [S11K] | 3.55
CSECGESFSRPSRLMSHQRTHTG [S11P] | 4.22

Variant | protein stability index
CSECGESFSRISRLMSHQRTHTG [S11I] | 3.98
CSECGESFSRDSRLMSHQRTHTG [S11D] | 2.1
CSECGESFSRFSRLMSHQRTHTG [S11F] | 3.14
CSECGESFSRGSRLMSHQRTHTG [S11G] | 3.13
CSECGESLSRSSRLMSHQRTHTG [F8L] | 1.37
CSECGESWSRSSRLMSHQRTHTG [F8W] | 3.15
CSECGESISRSSRLMSHQRTHTG [F8I] | 1.21
CSECGESNSRSSRLMSHQRTHTG [F8N] | 1.92
CSECGESGSRSSRLMSHQRTHTG [F8G] | 2.58
CSECGESYSRSSRLMSHQRTHTG [F8Y] | 2.39
CSECGESSSRSSRLMSHQRTHTG [F8S] | 2.11
CSECGESRSRSSRLMSHQRTHTG [F8R] | 2.2
CSECGESASRSSRLMSHQRTHTG [F8A] | 1.35
CSECGESPSRSSRLMSHQRTHTG [F8P] | 1.91
CSECGESDSRSSRLMSHQRTHTG [F8D] | 2.63
CSECGESMSRSSRLMSHQRTHTG [F8M] | 2.21
CSECGESQSRSSRLMSHQRTHTG [F8Q] | 2.16
CSECGESHSRSSRLMSHQRTHTG [F8H] | 2.13
CSECGESTSRSSRLMSHQRTHTG [F8T] | 2.04
CSECGESCSRSSRLMSHQRTHTG [F8C] | 2
CSECGESESRSSRLMSHQRTHTG [F8E] | 3.32
CSECGESKSRSSRLMSHQRTHTG [F8K] | 2.14
